According to patent US20200079826:

What was measured:
Test in all cases: cell_activity
ZFN 56643 (synthetic) = conditions: pair with 56644; Neuro2a
ZFN 56444 (synthetic) = conditions: pair with 56445; K562; F6 printed QSGMLAR but cited as SEQ 5 (QSGNLAR)
ZFN 56126 (synthetic) = conditions: pair with 56127; K562
ZFN 56529 (synthetic) = conditions: pair with 56526; K562 deltaF508 line
ZFN 56527 (synthetic) = conditions: pair with 56526; K562 deltaF508 line
ZFN 56445 (synthetic) = conditions: pair with 56444; K562
ZFN 56317 (synthetic) = conditions: pair with 56316; K562
ZFN 56690 (synthetic) = conditions: pair with 56691; Neuro2a
ZFN 56254 (synthetic) = conditions: pair with 56255; K562
ZFN 56255 (synthetic) = conditions: pair with 56254; K562
ZFN 56127 (synthetic) = conditions: pair with 56126; K562
ZFN 56316 (synthetic) = conditions: pair with 56317; K562
ZFN 56691 (synthetic) = conditions: pair with 56690; Neuro2a; Table 2 site differs slightly from listing
ZFN 56526 (synthetic) = conditions: 16.8% with 56527; K562 deltaF508 line
ZFN 56644 (synthetic) = conditions: pair with 56643; Neuro2a

Sequence: GCAATGCTTCATGGGAAAGTACAGTGGC (double strand) [Cftr int8 56643 site]
- activity (ZFN 56643 (synthetic)): 49.2 % indels

Sequence: GGGAAGAAGCAGCTGAAATGTGTAGGTG (double strand) [CFTR int3 56444 site]
- activity (ZFN 56444 (synthetic)): 32.7 % indels

Sequence: GTACACTGGACTCAGCAGCCTGAATTCC (double strand) [CFTR int7 56126 site]
- activity (ZFN 56126 (synthetic)): 55.4 % indels

Sequence: ATGATGAATATAGATACAGAAGCGTCAT (double strand) [CFTR dF508 56529/56527 site]
- activity (ZFN 56529 (synthetic)): 19.6 % indels
- activity (ZFN 56527 (synthetic)): 16.8 % indels

Sequence: GTGAGAAGGCAGAGAGAAGAATATTTAT (double strand) [CFTR int3 56445 site]
- activity (ZFN 56445 (synthetic)): 32.7 % indels

Sequence: TTTATCCTTTTGCTGACCATGTTTTGTT (double strand) [CFTR int1 56317 site]
- activity (ZFN 56317 (synthetic)): 52 % indels

Sequence: CCCTGGGTTATGCTGTGATCTTGTGTCA (double strand) [Cftr int1 56690 site]
- activity (ZFN 56690 (synthetic)): 67.2 % indels

Sequence: ATTAAGTCCACGCATACTGAAGTCTTGG (double strand) [CFTR int8 56254 site]
- activity (ZFN 56254 (synthetic)): 50.1 % indels

Sequence: TAGGGAAGGTAGGAGCATAAGGAAGAAT (double strand) [CFTR int8 56255 site]
- activity (ZFN 56255 (synthetic)): 50.1 % indels

Sequence: ATGGAAACTGAGCTGCAGGTGTGTGATT (double strand) [CFTR int7 56127 site]
- activity (ZFN 56127 (synthetic)): 55.4 % indels

Sequence: GAAAAGACTATTGAGGGACTGGTGTAGA (double strand) [CFTR int1 56316 site]
- activity (ZFN 56316 (synthetic)): 52 % indels

Sequence: GTCAACAGGTGTACTGCAGGCATGCTAG (double strand) [Cftr int1 56691 site]
- activity (ZFN 56691 (synthetic)): 67.2 % indels

Sequence: GGAAACACCAATGATATTTTCTTTAATG (double strand) [CFTR dF508 56526 site]
- activity (ZFN 56526 (synthetic)): 19.6 % indels

Sequence: TGGAAGCTGAAGTTCTTGGAACATAGCA (double strand) [Cftr int8 56644 site]
- activity (ZFN 56644 (synthetic)): 49.2 % indels
